# T1: GH3-1 (Vitis vinifera, UniProt F6H697)
# T1 construct: gene GH3.1_2
# T1 sequence (F6H697 1-598): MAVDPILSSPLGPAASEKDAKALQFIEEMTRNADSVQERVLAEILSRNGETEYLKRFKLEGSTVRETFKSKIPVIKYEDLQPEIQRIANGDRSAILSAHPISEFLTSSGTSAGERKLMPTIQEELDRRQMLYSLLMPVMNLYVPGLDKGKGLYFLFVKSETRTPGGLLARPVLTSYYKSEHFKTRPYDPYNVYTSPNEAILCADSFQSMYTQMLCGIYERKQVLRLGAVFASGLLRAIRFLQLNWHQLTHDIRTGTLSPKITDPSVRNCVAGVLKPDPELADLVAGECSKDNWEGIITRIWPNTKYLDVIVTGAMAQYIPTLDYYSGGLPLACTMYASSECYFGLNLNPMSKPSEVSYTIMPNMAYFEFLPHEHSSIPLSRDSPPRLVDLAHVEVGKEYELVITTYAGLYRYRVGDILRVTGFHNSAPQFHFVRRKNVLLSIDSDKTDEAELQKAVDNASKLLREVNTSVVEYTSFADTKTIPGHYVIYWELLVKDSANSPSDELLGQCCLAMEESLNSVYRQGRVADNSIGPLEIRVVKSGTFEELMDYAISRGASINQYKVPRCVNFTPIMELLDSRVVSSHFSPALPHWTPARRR
# B1: GH3-1 (Vitis vinifera) (protein)
# chain: T1 sequence (F6H697 1-598)
# What was measured:
# GH3-1 = target: T1, GH3-1; experiment: IAA-Asp formation by LC-ESI-MS/MS with recombinant enzyme; Dixon plots; assay type: biochemical
# [1] = substrate: Nc1ncnc2c1ncn2[C@@H]1O[C@H](COP(=O)(O)OP(=O)(O)OP(=O)(O)O)[C@@H](O)[C@H]1O; experiment: Michaelis-Menten kinetics (Km), LC-ESI-MS/MS of IAA-Asp; assay type: biochemical, Vitis vinifera; details: Mg2+ catalytic site
# [2] = substrate: O=C(O)Cc1c[nH]c2ccccc12; experiment: as above; assay type: biochemical, Vitis vinifera; details: MgATP catalytic site
Ki (GH3-1) [nM],Molecule,Km [1] [µM],Vmax [1] [µmol/min/mg],kcat [1] [s⁻¹],Km [2] [µM],Vmax [2] [µmol/min/mg],kcat [2] [s⁻¹]
200,"Nc1ncnc2c1ncn2[C@@H]1O[C@H](COP(=O)(O)OCCc2c[nH]c3ccccc23)[C@@H](O)[C@H]1O [AIEP, adenosine-5′-[2-(1H-indol-3-yl)ethyl]phosphate]",,,,,,
,B1,13.2 ± 1.4,0.261,0.3,21.1 ± 1.4,0.384,0.442

# From article PMC3359377, “A Novel Tool for Studying Auxin-Metabolism: The Inhibition of Grapevine Indole-3-Acetic Acid-Amido Synthetases by a Reaction Intermediate Analogue” (PLoS ONE, 2012)
